Here are results for one molecule from article PMC6541287 (2019).

The assay addresses T1, Coactosin (Entamoeba histolytica, UniProt C4M4P4).
T1 chain: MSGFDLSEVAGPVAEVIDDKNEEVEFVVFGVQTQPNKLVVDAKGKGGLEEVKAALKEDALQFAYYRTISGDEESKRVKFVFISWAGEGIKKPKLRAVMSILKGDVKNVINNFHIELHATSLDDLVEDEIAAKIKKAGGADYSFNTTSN
Briefly: SPR. A general note: Surface plasmon resonance follows binding to a sensor surface in real time, without labels.

B1: EhP3 (protein)
chain: MAESREDCVFLSKLAEQSERYDEMVQYMKQVAALNTELSVEERNLLSVAYKNVIGSRRASWRIITSLEQKEQAKGNDKHVEIIKGYRAKIEDELAKYCDDVLKVIKENLLPNASTSESKVFYKKMEGDYYRYYAEFTVDEKRQEVADKSLAAYTEATEISNADLAPTHPIRLGLALNFSVFYYEIMNDADKACQLAKQAFDDSIAKLDEVPESSYKDSTLIMQLLRDNLTLWTSDTADEE
B1: the Kd – broadly, a measure of binding affinity in units of concentration – was determined as 3000 nM.
